Reference: article PMC8486122 (2021)

Target: RTX751 (ACT residues 751–1706) (Bordetella pertussis, UniProt P0DKX7 751-1706)
Assay: SPR

Sequence of RTX751 (ACT residues 751–1706) (P0DKX7 751-1706): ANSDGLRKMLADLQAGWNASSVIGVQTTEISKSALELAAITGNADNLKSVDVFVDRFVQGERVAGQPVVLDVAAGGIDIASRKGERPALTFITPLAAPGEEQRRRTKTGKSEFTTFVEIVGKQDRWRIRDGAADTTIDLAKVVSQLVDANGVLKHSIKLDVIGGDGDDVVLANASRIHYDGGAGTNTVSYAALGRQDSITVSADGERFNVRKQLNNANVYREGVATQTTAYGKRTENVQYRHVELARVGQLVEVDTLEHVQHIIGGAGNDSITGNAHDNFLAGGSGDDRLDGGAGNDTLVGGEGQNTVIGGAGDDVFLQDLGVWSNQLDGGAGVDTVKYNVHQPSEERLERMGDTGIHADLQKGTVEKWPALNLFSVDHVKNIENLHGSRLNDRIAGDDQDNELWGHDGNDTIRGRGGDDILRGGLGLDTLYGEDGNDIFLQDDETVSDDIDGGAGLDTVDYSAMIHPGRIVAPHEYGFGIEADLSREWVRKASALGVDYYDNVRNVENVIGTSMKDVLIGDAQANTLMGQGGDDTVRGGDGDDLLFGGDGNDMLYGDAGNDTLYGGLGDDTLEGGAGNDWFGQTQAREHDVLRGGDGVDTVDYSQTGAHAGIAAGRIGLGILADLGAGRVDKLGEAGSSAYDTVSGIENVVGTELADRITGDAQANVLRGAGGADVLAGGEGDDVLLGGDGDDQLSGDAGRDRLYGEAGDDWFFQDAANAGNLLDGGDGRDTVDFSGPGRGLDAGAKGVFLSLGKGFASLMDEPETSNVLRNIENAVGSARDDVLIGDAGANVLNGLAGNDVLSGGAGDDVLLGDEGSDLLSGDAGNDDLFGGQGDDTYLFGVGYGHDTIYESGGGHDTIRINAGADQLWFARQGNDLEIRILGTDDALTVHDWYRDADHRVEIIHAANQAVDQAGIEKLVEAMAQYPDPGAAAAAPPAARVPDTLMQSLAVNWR

Row | Binder | koff
1 | M1H5 Fab (Fab, V domains shown) VH: EVNLVESGGDLVKPGGSLKLSCAASGFTFSSYGMSWVRQTPDKRLEWVATISSGGTYTYYPDSVKGRFTISRDNAKNTLYLQMSSLKSEDTAMYYCAREIMRGGGYYFDYWSQGTTLTVSS VL: DIQMIQSTSSLSASLGDRVTISCRASQDISNYLNWYQQKPDGTVKLLIYYTSRLHSGVPSRFSGSGSGTDYSLTISNLEQEDIATYFCQQGNTLPYTFGGGTKLEIK | 0.00102 s⁻¹
2 | M2B10 Fab (Fab, V domains shown) VH: EVQLQQSGAELVRPGTSVKVSCKASGYAFTNYLIEWVKQRPGQGLEWIGVINPGIGNTNYNEKFKGKATLTADKSSSTVYMQLSSLTSDDSAVYFCARGLNYGSSQHWYFDVWGAGTSVTVSS VL: IVMTQSPAILSASLGERVTMTCTASSSVSSSYLHWYQQKPGSSPKLWIYSTSNLASGVPARFSGSGSGTSYSLTISSMEAEDAATYYCHQYHRSPPTFGAGTKLEIK | 0.00121 s⁻¹
